From article PMC9907729 (Immunity, 2022)
Changes are numbered by the printed parent chain. In names and notes the source's numbering stands.

T1: MBP-tagged FoxP3^RBR-forkhead (mouse, UniProt Q99JB6 284-423)
T1 sequence (looked up): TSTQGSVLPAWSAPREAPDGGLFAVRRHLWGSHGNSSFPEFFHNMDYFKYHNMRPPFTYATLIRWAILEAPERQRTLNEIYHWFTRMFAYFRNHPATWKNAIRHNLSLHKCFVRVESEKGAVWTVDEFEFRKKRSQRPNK

B1: NusA-tagged FoxP3^ΔN (domain or fragment, mouse, UniProt Q99JB6 188-423, looked up)
chain: GSYPLLANGVCKWPGCEKVFEEPEEFLKHCQADHLLDEKGKAQCLLQREVVQSLEQQLELEKEKLGAMQAHLAGKMALAKAPSVASMDKSSCCIVATSTQGSVLPAWSAPREAPDGGLFAVRRHLWGSHGNSSFPEFFHNMDYFKYHNMRPPFTYATLIRWAILEAPERQRTLNEIYHWFTRMFAYFRNHPATWKNAIRHNLSLHKCFVRVESEKGAVWTVDEFEFRKKRSQRPNK
B2: NusA-tagged FoxP3^RBR-forkhead R337Q (domain or fragment, mouse, UniProt Q99JB6 284-423, looked up)
chain: T1 sequence (looked up) with R54Q
B3: Recombinant Y373V FoxP3^RBR-forkhead (domain or fragment, mouse, UniProt Q99JB6 284-423, looked up)
chain: T1 sequence (looked up) with Y90V
B4: GST-tagged Runx1 (residue 371–451) (domain or fragment, mouse, UniProt Q03347 371-451, looked up)
chain: GSPSYHLYYGASAGSYQFSMVGGERSPPRILPPCTNASTGAALLNPSLPSQSDVVETEGSHSNSPTNMPPARLEEAVWRPY

What was measured:
SEC-MALS = biological target: the molecule itself; experiment: SEC-MALS
SEC = biological target: the molecule itself; experiment: SEC
[1] = biological target: T1, MBP-tagged FoxP3^RBR-forkhead; experiment: pull-down

| Binder | stoichiometry N (SEC-MALS) | further results |
| --- | --- | --- |
| B1 | 2 | – |
| B2 | 2 | – |
| B3 | – | stoichiometry N (SEC): 4 |
| B4 | – | binding result [1]: binds |
